Test results as given in article PMC7910581.

Molecular target: T1, Nla28-DBD (Myxococcus xanthus (DK1622?)) (UniProt Q1DD46)
T1 sequence: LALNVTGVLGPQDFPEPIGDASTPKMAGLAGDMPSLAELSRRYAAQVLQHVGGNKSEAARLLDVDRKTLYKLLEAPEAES
Test: EMSA
Conditions: EMSA: 25 mM Tris acetate, 8.0 mM magnesium acetate, 10 mM KCl, 1 mM DTT, pH 8.0, 30 min at 30 C; 2 uM Nla28-DBD, 1 ng Cy5-DNA

| Sequence | binding |
| --- | --- |
| CAGCAGGCGCTCGAGGTCCTCAAGGTCAAGAAGTTCGAAAGCGGCATGGTGGTGGACCCCGTCACCATCGAACCGGAGGCCCCGCTGGGCCGCGCGCTGGAGCTGATGCGCCTTCACGGCGTGTCCGGCATCCCGGTGGTGAAGGGCCAGCGACTGGTGGGCATCGTCACCAGCCGCGACGTGCGCTTCGAGACCAACTT (double strand) [Cy5-P3778] | binds |
| GCGTCTTCTTGTCCGTACCGCGGAAGCGCAGCAGGTAGGGGTTGGCGTAGAAGATGTTGCCGGGCTCGCGCTTGCCCACCCAGAACGTCTCGGGGGCAATCTCCACCGGCACGAGGCGGAGGTCGGAGCTCTGGCTCGGGCTTGGGACTGGGGCGATGGTGCTGCTCATGGGCGCGGCGTTCCTTCCCTTTCGGGTGTAT (double strand) [Cy5-P1579] | binds |
| GCTCGTGTCGCGTCCCTACATCCAGAACGCCGCTCGCAAGGCATTGGTCTCCGCCGTGAAGAGCATTGAGGATGCTCAGCAGGAGCTGGAGAGGACGCAGAAGCAGGAGGTGGAGTCGGCAGGCGCGGTCTCGCAGGCAGGGGGCGCGAAGTCCTCCGGCTAGTCAGGACTGTGCGAGGTCGTGTGGACGCTGTCCCTGT (double strand) [Cy5-P1286] | binds |
